Measurements reported in US20190178879A1.
Blank lines part the entries; values can stand above or below the substance they belong to.

What was measured:
[1] = target: human CD3 cell surface antigen on PBMCs (human) (UniProt P07766); assay: flow cytometry on human PBMCs, detected with rat anti-mouse PE
[2] = target: human CD3 cell surface antigen on PBMCs (human) (UniProt P07766); assay: flow cytometry on human PBMCs, detected with anti-PEG/HL647 label
[3] = target: human CD45 on PBMCs (human) (UniProt P08575); assay: as above
[4] = target: anti-pHIS/CD3 TAC (tetrameric antibody complex of anti-pHIS antibody and anti-CD3 antibody); assay: cell-based or functional assay
[5] = target: anti-pHIS antibody (clone J099B12, Biolegend), fluorescently labeled with AlexaFluor 488; assay: flow cytometry competition, inhibition format: soluble pHIS preincubated with anti-pHIS antibody before pHIS-conjugated particles
[6] = target: anti-pHIS antibody (clone J099B12, Biolegend), fluorescently labeled with AlexaFluor 488; assay: flow cytometry competition, release format: soluble pHIS added after anti-pHIS antibody was bound to pHIS-conjugated particles

Sequence of UniProt P07766 (P07766 23-207): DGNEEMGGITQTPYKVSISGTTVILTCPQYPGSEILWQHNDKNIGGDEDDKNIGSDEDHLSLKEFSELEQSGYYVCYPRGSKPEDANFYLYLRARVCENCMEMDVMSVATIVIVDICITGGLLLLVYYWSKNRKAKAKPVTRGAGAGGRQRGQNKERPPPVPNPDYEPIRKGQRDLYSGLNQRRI
Sequence of UniProt P08575 (P08575 26-1306): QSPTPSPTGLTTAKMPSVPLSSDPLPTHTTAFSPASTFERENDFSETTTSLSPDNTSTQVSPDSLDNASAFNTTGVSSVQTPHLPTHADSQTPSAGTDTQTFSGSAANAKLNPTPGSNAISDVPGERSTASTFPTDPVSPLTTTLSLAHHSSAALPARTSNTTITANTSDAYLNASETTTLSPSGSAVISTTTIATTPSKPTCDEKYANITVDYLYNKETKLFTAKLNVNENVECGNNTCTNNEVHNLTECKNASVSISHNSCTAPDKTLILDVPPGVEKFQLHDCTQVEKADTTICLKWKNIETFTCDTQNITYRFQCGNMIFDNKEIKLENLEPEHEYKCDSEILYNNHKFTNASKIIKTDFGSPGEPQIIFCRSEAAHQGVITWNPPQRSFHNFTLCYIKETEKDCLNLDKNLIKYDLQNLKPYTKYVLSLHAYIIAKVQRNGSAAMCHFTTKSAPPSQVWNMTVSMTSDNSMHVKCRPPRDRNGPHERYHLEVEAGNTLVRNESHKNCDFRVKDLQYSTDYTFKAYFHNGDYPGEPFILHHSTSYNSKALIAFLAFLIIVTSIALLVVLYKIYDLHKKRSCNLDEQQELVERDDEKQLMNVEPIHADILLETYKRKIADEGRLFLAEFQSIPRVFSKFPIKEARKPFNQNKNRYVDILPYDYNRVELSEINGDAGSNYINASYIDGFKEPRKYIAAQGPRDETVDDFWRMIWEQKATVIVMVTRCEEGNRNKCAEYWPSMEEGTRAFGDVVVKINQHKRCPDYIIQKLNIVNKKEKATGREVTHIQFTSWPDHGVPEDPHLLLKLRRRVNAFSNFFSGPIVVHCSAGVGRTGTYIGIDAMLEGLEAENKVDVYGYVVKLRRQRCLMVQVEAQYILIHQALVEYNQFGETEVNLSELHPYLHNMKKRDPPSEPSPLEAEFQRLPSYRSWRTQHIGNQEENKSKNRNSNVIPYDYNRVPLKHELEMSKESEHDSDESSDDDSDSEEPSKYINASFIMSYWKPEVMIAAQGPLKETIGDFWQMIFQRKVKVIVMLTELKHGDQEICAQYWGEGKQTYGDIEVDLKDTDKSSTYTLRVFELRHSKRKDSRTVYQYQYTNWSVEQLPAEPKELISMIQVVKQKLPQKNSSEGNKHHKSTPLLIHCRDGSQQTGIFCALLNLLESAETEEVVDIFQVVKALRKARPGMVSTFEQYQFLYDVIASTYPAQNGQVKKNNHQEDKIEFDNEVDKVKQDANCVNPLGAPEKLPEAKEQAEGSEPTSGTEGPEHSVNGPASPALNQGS

percent of lymphocytes with a CD3+ signal [1]: 87.8%
Substance: CD3 antibody (clone UCHT1)

percent of cells with a positive signal [2]: 83.4%
Substance: CD3 antibody (clone UCHT1) PEGylated with 30 kDa PEG

percent of cells with a positive signal [3]: > 96%
Substance: CD45 antibody (clone MEM-28) PEGylated with 30 kDa PEG

% Rel (release efficiency), average, n = 2 [4]: 69.3% | particle release efficiency [4]: 72% | IC50 [5]: 1.9 µM | IC50 [6]: 237 µM
Substance: soluble pHIS (polyhistidine) peptide, 0.84 kDa
